Ends that are not written are not given here.
Tests used:
[1] = target: biotinylated human plasma Kallikrein (Homo sapiens, UniProt P03952); assay: Phage binding assay of individual clones, randomisation of peptide domains
From the text: Library construction: Small phage libraries were generated according to the methods of Heinis et al as described in ‘Cloning of phage libraries’ above. The sficx3ba primer was modified such that the bicycle-encoding portion was based on a parent 5×5 bicycle (5×5: two 5-residue loops) DNA sequence with only 4-6 codons randomized to NNS. The randomized codons were those encoding the peptide domain/motif of interest.
Assay of binding of individual clones: Library transformant colonies, or selection output colonies, were picked and grown as individual cultures in 2TY broth containing selective antibiotic. The picked colonies were DNA-sequenced using a QIAgen PyroMark Q96 DNA sequencer to reveal the amino-acid substitution present in each clone, and were assayed for human plasma Kallikrein binding as follows. The phage-containing supernatant was harvested from the culture and phage were cyclised with tris bromomethyl benzene(TBMB) based on the methods of Heinis et al (Nature Chemical Biology vol. 5 pp 502-507 (2009)). The purified phage from this process were assayed for binding to biotinylated human plasma Kallikrein using a homogeneous plate-based binding assay; assay read-out measured on a BMG Labtech Pherastar FS plate reader. The quantitative binding data from duplicate assay samples was averaged (mean) and expressed as signal:background. Assay data shown is representative of at least 2 independent experiments. The assay data was correlated with the peptide sequences.
The WPAR (SEQ ID NO: 18) motif identified from Example 1 was analysed in the context of the 06-34-03 peptide, in order to identify alternatives or improvements to the WPAR (SEQ ID NO: 18) motif. A library was constructed where positions 1, 6, 7, 8, 9 &10 of 06-34-03 were fixed and positions 2, 3, 4 & 5 were randomised (see ‘Randomisation of peptide domains—Library construction’ in Methods above). Selections against human plasma Kallikrein were performed at a variety of stringencies (see Phage selections' in Methods above). All output sequences were identified and analysed for target binding (see ‘Randomisation of peptide domains—Assay of binding of individual clones’ in Methods above). Table 17 lists each unique sequence, its relative abundance in the selection output (frequency), and a rank number according to target binding strength.
Selections against human plasma Kallikrein were performed with this library in order to study the non-WPAR (SEQ ID NO: 18) determinants of Kallikrein binding, and to isolate the optimal WPAR (SEQ ID NO: 18)-containing peptide sequence. Over 150 selection output sequences were isolated and screened for binding to human plasma Kallikrein (as described in Methods above). The sequences were ranked in order of Kallikrein binding and the top 50 sequences were aligned in Table 19. […]

Biotinylated hPK = target: T1, Biotinylated hPK (Homo sapiens, UniProt P03952); assay: Phage selections, abundance of sequences in selection outputs; type: binding; settings: for Frequency (relative abundance in the total selection outputs): randomised WPAR motif at positions 2, 3, 4 & 5 within the 06-34-03 sequence
T1 construct: IHPKA, from human plasma; purchased Innovative Research, Novi, MI, USA IHPKA; host or cells: human plasma
T1 sequence (P03952 20-638): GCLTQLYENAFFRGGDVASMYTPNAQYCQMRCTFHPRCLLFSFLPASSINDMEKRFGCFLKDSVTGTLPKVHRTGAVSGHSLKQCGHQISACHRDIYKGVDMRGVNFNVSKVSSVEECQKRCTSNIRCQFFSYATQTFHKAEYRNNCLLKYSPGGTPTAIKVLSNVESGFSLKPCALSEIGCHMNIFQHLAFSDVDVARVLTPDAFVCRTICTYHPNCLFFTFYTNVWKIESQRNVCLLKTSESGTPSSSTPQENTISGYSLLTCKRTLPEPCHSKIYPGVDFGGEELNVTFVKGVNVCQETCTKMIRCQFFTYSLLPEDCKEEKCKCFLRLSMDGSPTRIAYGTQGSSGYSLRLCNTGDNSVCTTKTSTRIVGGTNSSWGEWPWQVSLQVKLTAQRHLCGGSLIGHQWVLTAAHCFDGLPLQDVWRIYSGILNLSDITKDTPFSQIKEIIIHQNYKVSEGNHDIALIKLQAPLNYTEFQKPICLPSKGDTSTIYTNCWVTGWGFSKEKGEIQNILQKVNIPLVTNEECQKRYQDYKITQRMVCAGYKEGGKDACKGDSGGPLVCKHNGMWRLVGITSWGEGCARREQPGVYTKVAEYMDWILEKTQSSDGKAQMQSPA

[2] = randomised WPAR motif at positions 2, 3, 4 & 5 within the 06-34-03 sequence, 1 = best binding
[3] = WPAR domain fixed, positions 1, 6, 7, 8, 9 & 10 randomised, top 50

Chain of biotinylated human plasma Kallikrein (P03952 20-638): as above

SEQ ID NO: 75 (CSFPFRCTHQDLC; Synthetic sequence Kallikrein binder identified from selections using a randomised WPAR motif at positions 2, 3, 4 & 5 within the 06-34-03 sequence of PCT/EP2012/069898 (SEQ ID NO 58))
Rank (sequences ranked according to Kallikrein binding) [1, 2]: 3 | Frequency (relative abundance in the total selection outputs) (Biotinylated hPK): 17

SEQ ID NO: 84 (CSFPFRCTHQDLC; Synthetic sequence Kallikrein binder identified from selections using a randomised WPAR motif at positions 2, 3, 4 & 5 within the 06-34-03 sequence of PCT/EP2012/069898 (SEQ ID NO 58))
Rank (sequences ranked according to Kallikrein binding) [1, 2]: 12 | Frequency (relative abundance in the total selection outputs) (Biotinylated hPK): 2

SEQ ID NO: 85 (CSLPFRCTHQDLC; Synthetic sequence Kallikrein binder identified from selections using a randomised WPAR motif at positions 2, 3, 4 & 5 within the 06-34-03 sequence of PCT/EP2012/069898 (SEQ ID NO 58))
Rank (sequences ranked according to Kallikrein binding) [1, 2]: 13 | Frequency (relative abundance in the total selection outputs) (Biotinylated hPK): 3

SEQ ID NO: 88 (CSLPFKCTHQDLC; Synthetic sequence Kallikrein binder identified from selections using a randomised WPAR motif at positions 2, 3, 4 & 5 within the 06-34-03 sequence of PCT/EP2012/069898 (SEQ ID NO 58))
Rank (sequences ranked according to Kallikrein binding) [1, 2]: 16 | Frequency (relative abundance in the total selection outputs) (Biotinylated hPK): 1

SEQ ID NO: 89 (CSLPFRCTHQDLC; Synthetic sequence Kallikrein binder identified from selections using a randomised WPAR motif at positions 2, 3, 4 & 5 within the 06-34-03 sequence of PCT/EP2012/069898 (SEQ ID NO 58))
Rank (sequences ranked according to Kallikrein binding) [1, 2]: 17 | Frequency (relative abundance in the total selection outputs) (Biotinylated hPK): 4

SEQ ID NO: 92 (CSLPFKCTHQDLC; Synthetic sequence Kallikrein binder identified from selections using a randomised WPAR motif at positions 2, 3, 4 & 5 within the 06-34-03 sequence of PCT/EP2012/069898 (SEQ ID NO 58))
Rank (sequences ranked according to Kallikrein binding) [1, 2]: 20 | Frequency (relative abundance in the total selection outputs) (Biotinylated hPK): 1

SEQ ID NO: 97 (CSLPFRCTHQDLC; Synthetic sequence Kallikrein binder identified from selections using a randomised WPAR motif at positions 2, 3, 4 & 5 within the 06-34-03 sequence of PCT/EP2012/069898 (SEQ ID NO 58))
Rank (sequences ranked according to Kallikrein binding) [1, 2]: 25 | Frequency (relative abundance in the total selection outputs) (Biotinylated hPK): 2

SEQ ID NO: 145 (CAWPARCMHDDLC; Synthetic sequence Kallikrein binder containing a WPAR motif)
Rank (sequences ranked according to Kallikrein binding) [1, 3]: 32

SEQ ID NO: 146 (CSWPARCLHTELC; Synthetic sequence Kallikrein binder containing a WPAR motif)
Rank (sequences ranked according to Kallikrein binding) [1, 3]: 33

SEQ ID NO: 147 (CSWPARCIHQDLC; Synthetic sequence Kallikrein binder containing a WPAR motif)
Rank (sequences ranked according to Kallikrein binding) [1, 3]: 34

SEQ ID NO: 148 (CTWPARCTHTDMC; Synthetic sequence Kallikrein binder containing a WPAR motif)
Rank (sequences ranked according to Kallikrein binding) [1, 3]: 35

SEQ ID NO: 149 (CAWPARCTHTHLC; Synthetic sequence Kallikrein binder containing a WPAR motif)
Rank (sequences ranked according to Kallikrein binding) [1, 3]: 36

SEQ ID NO: 150 (CAWPARCLHADMC; Synthetic sequence Kallikrein binder containing a WPAR motif)
Rank (sequences ranked according to Kallikrein binding) [1, 3]: 37

SEQ ID NO: 151 (CAWPARCLHQDWC; Synthetic sequence Kallikrein binder containing a WPAR motif)
Rank (sequences ranked according to Kallikrein binding) [1, 3]: 38

SEQ ID NO: 152 (CDWPARCMHQEFC; Synthetic sequence Kallikrein binder containing a WPAR motif)
Rank (sequences ranked according to Kallikrein binding) [1, 3]: 39

SEQ ID NO: 153 (CAWPARCTHQTMC; Synthetic sequence Kallikrein binder containing a WPAR motif)
Rank (sequences ranked according to Kallikrein binding) [1, 3]: 40

SEQ ID NO: 154 (CTWPARCLHQHMC; Synthetic sequence Kallikrein binder containing a WPAR motif)
Rank (sequences ranked according to Kallikrein binding) [1, 3]: 41

SEQ ID NO: 155 (CSWPARCVHQDMC; Synthetic sequence Kallikrein binder containing a WPAR motif)
Rank (sequences ranked according to Kallikrein binding) [1, 3]: 42

SEQ ID NO: 156 (CEWPARCLHTDLC; Synthetic sequence Kallikrein binder containing a WPAR motif)
Rank (sequences ranked according to Kallikrein binding) [1, 3]: 43

SEQ ID NO: 157 (CLWPARCLTTELC; Synthetic sequence Kallikrein binder containing a WPAR motif)
Rank (sequences ranked according to Kallikrein binding) [1, 3]: 44

SEQ ID NO: 158 (CSWPARCTHAEMC; Synthetic sequence Kallikrein binder containing a WPAR motif)
Rank (sequences ranked according to Kallikrein binding) [1, 3]: 45

SEQ ID NO: 159 (CRWPARCTHTDLC; Synthetic sequence Kallikrein binder containing a WPAR motif)
Rank (sequences ranked according to Kallikrein binding) [1, 3]: 46

SEQ ID NO: 160 (CTWPARCTHQAFC; Synthetic sequence Kallikrein binder containing a WPAR motif)
Rank (sequences ranked according to Kallikrein binding) [1, 3]: 47

SEQ ID NO: 161 (CSWPARCTHSDLC; Synthetic sequence Kallikrein binder containing a WPAR motif)
Rank (sequences ranked according to Kallikrein binding) [1, 3]: 48

SEQ ID NO: 162 (CSWPARCLHDDLC; Synthetic sequence Kallikrein binder containing a WPAR motif)
Rank (sequences ranked according to Kallikrein binding) [1, 3]: 49

SEQ ID NO: 163 (CPWPARCLHTDLC; Synthetic sequence Kallikrein binder containing a WPAR motif)
Rank (sequences ranked according to Kallikrein binding) [1, 3]: 50

SEQ ID NO: 208 (CSWPARCTHQDLC; Synthetic sequence 06-34-03)
Rank (sequences ranked according to Kallikrein binding) [1, 3]: 2

WPAR: phage clone: WPAR at positions 2-5 within the 06-34-03 sequence, TBMB-cyclised (also: TBMB-cyclised within the 06-34-03 context, the cysteines lie outside this motif)
Kallikrein binding in target binding assay [1]: optimal sequence for Kallikrein binding | Relative abundance of motif in selection output (Biotinylated hPK; 2nd stringency from High (1st value of cell)): 19% | Relative abundance of motif in selection output (Biotinylated hPK; 3rd stringency from High (2nd value of cell)): 13% | Relative abundance of motif in selection output (Biotinylated hPK; 4th stringency from High (3rd value of cell)): 22% | Relative abundance of motif in selection output (Biotinylated hPK; 5th stringency from High (4th value of cell)): 6% | Relative abundance of motif in selection output (Biotinylated hPK; stringency High): 17% | Relative abundance of motif in selection output (Biotinylated hPK; stringency LOW): 4%
